± gives the uncertainty stated by the source.
B1: Kinesin-like protein KIF16B, residues 1213 to 1273; numbered along this chain, Q96L93 (parent)
chain: ETWTVFRRYSRFREMHKTLKLKYAELAALEFPPKKLFGNKDERVIAERRSHLEKYLRDFFS

Variants of: B1
Experiment: abundance fitness (aPCA) (normalised: wild type 0, dead -1); higher = more abundant; growth selection in yeast, the domain comes from the species named
Conditions: Homo sapiens

Row | Variant | abundance fitness
1 | ETWTVFRRYSRFREMHKTLKLKYAELAALEFPPKKLFYNKDERVIAERRSHLEKYLRDFFS | -0.8 ± 0.38
2 | ETWTVFRRYSRFREMHKTLKLKYAELAALEFPPKKLFPNKDERVIAERRSHLEKYLRDFFS | -0.279 ± 0.1
3 | ETWTVFRRYSRFREMHKTLKLKYAELAALEFPPKKLFTNKDERVIAERRSHLEKYLRDFFS | -0.061 ± 0.072
4 | ETWTVFRRYSRFREMHKTLKLKYAELAALEFPPKKLFMNKDERVIAERRSHLEKYLRDFFS | -0.492 ± 0.11
5 | ETWTVFRRYSRFREMHKTLKLKYAELAALEFPPKKLFCNKDERVIAERRSHLEKYLRDFFS | -0.46 ± 0.16
6 | ETWTVFRRYSRFREMHKTLKLKYAELAALEFPPKKLFFNKDERVIAERRSHLEKYLRDFFS | -0.224 ± 0.13
7 | ETWTVFRRYSRFREMHKTLKLKYAELAALEFPPKKLFWNKDERVIAERRSHLEKYLRDFFS | -0.144 ± 0.061
8 | ETWTVFRRYSRFREMHKTLKLKYAELAALEFPPKKLFENKDERVIAERRSHLEKYLRDFFS | -0.173 ± 0.088
9 | ETWTVFRRYSRFREMHKTLKLKYAELAALEFPPKKLFNNKDERVIAERRSHLEKYLRDFFS | -0.195 ± 0.16
10 | ETWTVFRRYSRFREMHKTLKLKYAELAALEFPPKKLFHNKDERVIAERRSHLEKYLRDFFS | -0.151 ± 0.16
11 | ETWTVFRRYSRFREMHKTLKLKYAELAALEFPPKKLFQNKDERVIAERRSHLEKYLRDFFS | -0.076 ± 0.073
12 | ETWTVFRRYSRFREMHKTLKLKYAELAALEFPPKKLFLNKDERVIAERRSHLEKYLRDFFS | -0.458 ± 0.064
13 | ETWTVFRRYSRFREMHKTLKLKYAELAALEFPPKKLFSNKDERVIAERRSHLEKYLRDFFS | -0.234 ± 0.082
14 | ETWTVFRRYSRFREMHKTLKLKYAELAALEFPPKKLFANKDERVIAERRSHLEKYLRDFFS | -0.202 ± 0.053
15 | ETWTVFRRYSRFREMHKTLKLKYAELAALEFPPKKLFKNKDERVIAERRSHLEKYLRDFFS | -0.346 ± 0.1
16 | ETWTVFRRYSRFREMHKTLKLKYAELAALEFPPKKLFRNKDERVIAERRSHLEKYLRDFFS | -0.145 ± 0.044
17 | ETWTVFRRYSRFREMHKTLKLKYAELAALEFPPKKLFINKDERVIAERRSHLEKYLRDFFS | -0.347 ± 0.18
18 | ETWTVFRRYSRFREMHKTLKLKYAELAALEFPPKKLFDNKDERVIAERRSHLEKYLRDFFS | -0.678 ± 0.14
19 | ETWTVFRRYSRFREMHKTLKLKYAELAALEFPPKKLFGTKDERVIAERRSHLEKYLRDFFS | -0.291 ± 0.082
20 | ETWTVFRRYSRFREMHKTLKLKYAELAALEFPPKKLFGIKDERVIAERRSHLEKYLRDFFS | 0.06 ± 0.13
21 | ETWTVFRRYSRFREMHKTLKLKYAELAALEFPPKKLFGEKDERVIAERRSHLEKYLRDFFS | -0.397 ± 0.13
22 | ETWTVFRRYSRFREMHKTLKLKYAELAALEFPPKKLFGMKDERVIAERRSHLEKYLRDFFS | -0.063 ± 0.063

Row | Variant | abundance fitness
23 | ETWTVFRRYSRFREMHKTLKLKYAELAALEFPPKKLFGKKDERVIAERRSHLEKYLRDFFS | 0.203 ± 0.11
24 | ETWTVFRRYSRFREMHKTLKLKYAELAALEFPPKKLFGSKDERVIAERRSHLEKYLRDFFS | -0.033 ± 0.07
25 | ETWTVFRRYSRFREMHKTLKLKYAELAALEFPPKKLFGWKDERVIAERRSHLEKYLRDFFS | -0.108 ± 0.063
26 | ETWTVFRRYSRFREMHKTLKLKYAELAALEFPPKKLFGVKDERVIAERRSHLEKYLRDFFS | -0.011 ± 0.077
27 | ETWTVFRRYSRFREMHKTLKLKYAELAALEFPPKKLFGPKDERVIAERRSHLEKYLRDFFS | -0.102 ± 0.12
28 | ETWTVFRRYSRFREMHKTLKLKYAELAALEFPPKKLFGGKDERVIAERRSHLEKYLRDFFS | 0.036 ± 0.065
29 | ETWTVFRRYSRFREMHKTLKLKYAELAALEFPPKKLFGYKDERVIAERRSHLEKYLRDFFS | -0.347 ± 0.078
30 | ETWTVFRRYSRFREMHKTLKLKYAELAALEFPPKKLFGQKDERVIAERRSHLEKYLRDFFS | 0.054 ± 0.12
31 | ETWTVFRRYSRFREMHKTLKLKYAELAALEFPPKKLFGHKDERVIAERRSHLEKYLRDFFS | 0.05 ± 0.16
32 | ETWTVFRRYSRFREMHKTLKLKYAELAALEFPPKKLFGAKDERVIAERRSHLEKYLRDFFS | 0.174 ± 0.16
33 | ETWTVFRRYSRFREMHKTLKLKYAELAALEFPPKKLFGFKDERVIAERRSHLEKYLRDFFS | -0.246 ± 0.16
34 | ETWTVFRRYSRFREMHKTLKLKYAELAALEFPPKKLFGRKDERVIAERRSHLEKYLRDFFS | 0.04 ± 0.041
35 | ETWTVFRRYSRFREMHKTLKLKYAELAALEFPPKKLFGNKFERVIAERRSHLEKYLRDFFS | 0.149 ± 0.099
36 | ETWTVFRRYSRFREMHKTLKLKYAELAALEFPPKKLFGNKAERVIAERRSHLEKYLRDFFS | 0.154 ± 0.049
37 | ETWTVFRRYSRFREMHKTLKLKYAELAALEFPPKKLFGNKEERVIAERRSHLEKYLRDFFS | -0.07 ± 0.076
38 | ETWTVFRRYSRFREMHKTLKLKYAELAALEFPPKKLFGNKCERVIAERRSHLEKYLRDFFS | 0.101 ± 0.12
39 | ETWTVFRRYSRFREMHKTLKLKYAELAALEFPPKKLFGNKGERVIAERRSHLEKYLRDFFS | 0.038 ± 0.056
40 | ETWTVFRRYSRFREMHKTLKLKYAELAALEFPPKKLVGNKDERVIAERRSHLEKYLRDFFS | -0.202 ± 0.088
41 | ETWTVFRRYSRFREMHKTLKLKYAELAALEFPPKKLTGNKDERVIAERRSHLEKYLRDFFS | -0.566 ± 0.096
42 | ETWTVFRRYSRFREMHKTLKLKYAELAALEFPPKKLWGNKDERVIAERRSHLEKYLRDFFS | -0.734 ± 0.23
43 | ETWTVFRRYSRFREMHKTLKLKYAELAALEFPPKKLFGNGDERVIAERRSHLEKYLRDFFS | -0.269 ± 0.17
44 | ETWTVFRRYSRFREMHKTLKLKYAELAALEFPPKKLFGNQDERVIAERRSHLEKYLRDFFS | -0.164 ± 0.36

Reference: the Human Domainome abundance scans (Beltran et al. 2025)
